Source: article PMC5234120, “Age-related macular degeneration associated polymorphism rs10490924 in ARMS2 results in deficiency of a complement activator” (Journal of Neuroinflammation, 2017)

Columns and labels:
properdin [1] = target: T1, properdin (human, UniProt P27918 28-469); experiment: BLI; BLITZ system; His-tagged ARMS2 loaded on Ni2+ NTA biosensors in PBS with 0.1% gelatin; properdin 70 to 1800 nM; 1:1 model; settings: both partners purified
T1 construct: properdin (complement factor P), human; the oligomeric state of the purified protein was not measured here; also called purified properdin; source: bought: Complement Technologies (CompTech), purified; bought: TECOmedical GmbH (peptide ELISA); endogenous, normal human serum (NHS)
T1 sequence (P27918 28-469): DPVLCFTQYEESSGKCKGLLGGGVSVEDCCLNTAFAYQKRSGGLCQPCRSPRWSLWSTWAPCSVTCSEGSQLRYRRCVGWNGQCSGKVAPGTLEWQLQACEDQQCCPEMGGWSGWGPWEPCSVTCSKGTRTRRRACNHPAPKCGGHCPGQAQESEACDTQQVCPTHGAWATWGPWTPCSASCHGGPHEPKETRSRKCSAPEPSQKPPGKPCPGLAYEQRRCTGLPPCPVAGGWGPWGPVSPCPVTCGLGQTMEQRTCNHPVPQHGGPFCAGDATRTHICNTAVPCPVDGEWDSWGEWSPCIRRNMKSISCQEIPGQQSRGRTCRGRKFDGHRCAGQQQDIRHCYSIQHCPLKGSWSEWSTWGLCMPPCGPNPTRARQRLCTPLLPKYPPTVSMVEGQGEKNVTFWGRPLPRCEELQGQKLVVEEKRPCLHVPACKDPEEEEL

properdin [2] = target: T1, properdin; experiment: ELISA; ARMS2 peptides 1, 2, 3 (each 500 nM) coated on the plate; 2 uM properdin (TECOmedical) in PBS; detected with monoclonal properdin antibody; settings: both partners purified

Kd (properdin [1]) | binding result (properdin [2]) | Binder
0.5 µM |  | recombinant ARMS2 (age-related maculopathy susceptibility 2) (natural protein, human, UniProt P0C7Q2 1-107, looked up, ARMS2, human, codon usage optimized full length cDNA; Glycosylated in P. pastoris (17 and 15 kDa bands); also called His-tagged ARMS2; rARMS2) MLRLYPGPMVTEAEGKGGPEMASLSSSVVPVSFISTLRESVLDPGVGGEGASDKQRSKLSLSHSMIPAAKIHTELCLPAFFSPAGTQRRFQQPQHHLTLSIIHTAAR
 | binds | IHTELCLPAFFSPAGTQRRFQQPQHHLTLSIIHTAAR (ARMS2, human, amino acids 71 to 107; also called C-terminal peptide 3 of ARMS2; source: peptide generated by Jerini Peptide Biotechnologies) [ARMS2 peptide 3 (amino acids 71 to 107)]
